Data from paper PMC9413444 (ACS Nano, 2022).

System: intracranial glioblastoma GL261 in BL/6 mice
Details: GL261 tumor-bearing BL/6 mice; IV; 2 h post-injection (Figure 2B)

In the case of “poly(β-L-malic acid)-trileucine polymer [P/LLL(40%)]”, the “increase of fluorescence in tumor tissue from dose 0.25X to dose 1.0X” value was “increases proportionally with the dose administered”.
